Measurements as given in the Human Domainome abundance scans (Beltran et al. 2025).
± gives the uncertainty stated by the source.

B1: WW domain-binding protein 4, residues 8 to 43; numbered along this chain, O75554 (parent)
chain: QPKKFCDYCKCWIADNRPSVEFHERGKNHKENVAKR

Variants of: B1
Assay: abundance fitness (aPCA) (normalised: wild type 0, dead -1); higher = more abundant; growth selection in yeast, the domain comes from the species named
Details: Homo sapiens

Abundance fitness, by site and new letter:
H23: S -0.549 ± 0.076; N -0.967 ± 0.27; L -0.838 ± 0.082; A -0.739 ± 0.083; K -0.44 ± 0.15; D -0.387 ± 0.13; C -0.561 ± 0.11; I -0.884 ± 0.41
G26: S 0.04 ± 0.067; I -1 ± 0.28; R -0.228 ± 0.059; M 0.057 ± 0.091; C -0.197 ± 0.097; H 0.08 ± 0.15; V -0.18 ± 0.068; K -0.257 ± 0.14; T -0.123 ± 0.089; A -0.072 ± 0.058; P -0.547 ± 0.11
Q1: T -0.509 ± 0.12; A -0.931 ± 0.23; C -1.36 ± 0.41; K -0.879 ± 0.15; H -0.275 ± 0.089; L -0.654 ± 0.081; S -0.651 ± 0.11; E -0.941 ± 0.12; G -0.548 ± 0.099; V -0.257 ± 0.094; R -0.979 ± 0.094
R17: T -0.03 ± 0.11; V 0.008 ± 0.067; C 0.118 ± 0.099; N -0.019 ± 0.11; S 0.052 ± 0.073; M 0.176 ± 0.085; H -0.148 ± 0.14; A 0.036 ± 0.063; E -0.011 ± 0.067; P 0.253 ± 0.078; Y -0.235 ± 0.11; L -0.015 ± 0.073
R36: S -0.032 ± 0.097; W -0.29 ± 0.12; Q -0.304 ± 0.2; A 0.023 ± 0.11; K 0.058 ± 0.12
P2: L 0.045 ± 0.096; C -0.839 ± 0.18; D 0.365 ± 0.25; S 0.115 ± 0.075; R 0.047 ± 0.062; Q 0.179 ± 0.099; M 0.615 ± 0.2; I 0.015 ± 0.14; Y -0.176 ± 0.26; T 0.109 ± 0.11; W -0.692 ± 0.085
I13: A -0.531 ± 0.091; S -0.473 ± 0.085; P -0.488 ± 0.069; T -0.261 ± 0.096; Q -0.529 ± 0.085; L -0.236 ± 0.078; H -0.368 ± 0.12; V -0.089 ± 0.12; E -0.226 ± 0.08; D -0.171 ± 0.18
H29: T -0.63 ± 0.11; C -0.464 ± 0.25; D -0.995 ± 0.45; K -0.562 ± 0.21; N -0.444 ± 0.099; M -0.475 ± 0.25; W -0.481 ± 0.11; F -1 ± 0.32; S -0.542 ± 0.083; A -0.309 ± 0.096; P -0.894 ± 0.46
N32: D -0.49 ± 0.23; S -0.086 ± 0.075; F -0.405 ± 0.17; H -0.172 ± 0.11; K -0.111 ± 0.11; T -0.142 ± 0.13; A 0.038 ± 0.08; I -0.446 ± 0.23; Y -0.289 ± 0.14; Q 0.035 ± 0.1; M -0.228 ± 0.14
W12: E -0.238 ± 0.083; Q 0.077 ± 0.12; L -0.087 ± 0.068; K -0.557 ± 0.14; C -0.437 ± 0.097; A -0.209 ± 0.078; T -0.066 ± 0.079; H 0.339 ± 0.3
N28: Q -0.087 ± 0.11; C -0.097 ± 0.2; T -0.102 ± 0.11; E -0.015 ± 0.078; G 0.109 ± 0.081; W 0.147 ± 0.1
P18: W -0.522 ± 0.092; K -0.175 ± 0.13; E -0.048 ± 0.073; H -0.124 ± 0.14; R -0.162 ± 0.059; A -0.108 ± 0.061; Y -0.194 ± 0.096; Q -0.12 ± 0.083; V -0.198 ± 0.069; T -0.381 ± 0.14
R25: K 0 ± 0.078; S -0.037 ± 0.073; G 0.039 ± 0.061; Q 0.049 ± 0.088; T 0.014 ± 0.081; Y -0.357 ± 0.14; E -0.039 ± 0.07; P -0.428 ± 0.072; W -0.331 ± 0.092; C -0.133 ± 0.097
C11: I 0.002 ± 0.098; A 0.052 ± 0.066; M 0.084 ± 0.14; T 0.087 ± 0.17; G -0.059 ± 0.065; S 0.101 ± 0.075; Q 0.139 ± 0.09
F22: M 0.235 ± 0.089; I -0.33 ± 0.14; L 0.051 ± 0.073; S -0.01 ± 0.075; V 0.085 ± 0.056; T 0.163 ± 0.074; Q 0.238 ± 0.081; P -0.061 ± 0.1; E 0.07 ± 0.085; G 0.111 ± 0.059; D 0.132 ± 0.17; N -0.035 ± 0.17
V33: K -0.278 ± 0.076; G -0.22 ± 0.058; F -0.182 ± 0.14; P -0.315 ± 0.1; A -0.006 ± 0.079; R -0.149 ± 0.066; T -0.23 ± 0.1; N -0.572 ± 0.24; I -0.404 ± 0.23; L -0.205 ± 0.075
K30: C 0.022 ± 0.083; T 0.201 ± 0.099; I 0.085 ± 0.084; Q -0.02 ± 0.079; Y -0.391 ± 0.15; W -0.345 ± 0.071; A -0.101 ± 0.069; V -0.036 ± 0.07; S -0.117 ± 0.069; P -0.246 ± 0.097; M -0.177 ± 0.14; G -0.019 ± 0.057; R 0.049 ± 0.078
K3: T -0.275 ± 0.11; E 0.174 ± 0.073; Q 0.082 ± 0.08; D -0.025 ± 0.12; Y 0.045 ± 0.14; G -0.051 ± 0.058; L -0.193 ± 0.066; V -0.279 ± 0.065
C9: L -1.13 ± 0.14; E -0.603 ± 0.098; V -1.28 ± 0.14; S -0.116 ± 0.13; D -0.541 ± 0.11; M -1.23 ± 0.34; A -0.787 ± 0.073; G -0.525 ± 0.061
D15: P -0.186 ± 0.083; R -0.328 ± 0.068; H -0.37 ± 0.24; C -0.48 ± 0.086; W -0.391 ± 0.065; V -0.313 ± 0.068; N -0.249 ± 0.29; G -0.09 ± 0.055; K -0.367 ± 0.092; A -0.145 ± 0.07
E21: D -0.15 ± 0.093; N -0.312 ± 0.11; Q -0.074 ± 0.085; K 0.007 ± 0.07; A -0.163 ± 0.063; L -0.19 ± 0.069; H -0.475 ± 0.32; R -0.05 ± 0.059; V -0.289 ± 0.062; F -0.437 ± 0.25; S -0.167 ± 0.074; P -0.467 ± 0.096
K4: E -0.355 ± 0.08; V -0.507 ± 0.07; W -1.03 ± 0.075; L -0.366 ± 0.072; N -0.226 ± 0.1; C -0.453 ± 0.09; M 0.13 ± 0.082; R -0.374 ± 0.066; G -0.497 ± 0.07; A -0.291 ± 0.063; Q -0.245 ± 0.085
V20: P -0.512 ± 0.083; G -0.272 ± 0.067; R -0.226 ± 0.068; C -0.574 ± 0.12; Q -0.254 ± 0.084; Y -0.63 ± 0.14; F -0.442 ± 0.22; M -0.015 ± 0.4
E31: L -0.229 ± 0.071; M -0.065 ± 0.11; W -0.955 ± 0.1; A 0.01 ± 0.068; C -0.302 ± 0.18; K -0.107 ± 0.09; G -0.153 ± 0.071; R -0.103 ± 0.063; V -0.11 ± 0.086; D -0.093 ± 0.32; H -0.29 ± 0.2
K35: M -0.092 ± 0.09; Q -0.093 ± 0.1; N -0.085 ± 0.14; G 0 ± 0.065; P -0.002 ± 0.095; W 0.017 ± 0.12; D -0.057 ± 0.11; S -0.034 ± 0.068; C -0.951 ± 0.32
K27: M -0.115 ± 0.12; Q -0.032 ± 0.096; P -0.226 ± 0.11; D -0.192 ± 0.098; S -0.128 ± 0.1; F -0.189 ± 0.13; R -0.08 ± 0.061
E24: G -0.364 ± 0.058; W -0.413 ± 0.079; A -0.303 ± 0.072; F -0.181 ± 0.32; R -0.497 ± 0.06; Y -0.183 ± 0.21; L -0.614 ± 0.098; N -0.163 ± 0.11; P -0.915 ± 0.091; S -0.232 ± 0.078
N16: D -0.233 ± 0.11; S -0.177 ± 0.082; M 0.024 ± 0.084; V -0.14 ± 0.057; L -0.175 ± 0.065; I 0.321 ± 0.19; G 0.151 ± 0.055; Y -0.06 ± 0.14; K 0.102 ± 0.12; Q -0.073 ± 0.094
A14: V -0.39 ± 0.077; P -0.19 ± 0.082; R -0.381 ± 0.07; G -0.286 ± 0.061; M -0.602 ± 0.14; D -0.2 ± 0.1; K -0.251 ± 0.091; C -0.169 ± 0.1; Q -0.264 ± 0.28; S -0.343 ± 0.082
F5: D -0.533 ± 0.13; V -0.565 ± 0.083; Y -0.087 ± 0.17; P -0.551 ± 0.1; Q -0.328 ± 0.084; W -1.06 ± 0.087; M -0.085 ± 0.18; S -0.468 ± 0.087; I -0.379 ± 0.12; N -0.174 ± 0.1; A -0.261 ± 0.063
A34: K -0.098 ± 0.13; E -0.001 ± 0.13; V -0.088 ± 0.078; Q -0.289 ± 0.14; P -0.309 ± 0.26; W -0.232 ± 0.12; D 0.351 ± 0.13; S 0.055 ± 0.14; T 0.022 ± 0.09; L -0.201 ± 0.096; I 0.089 ± 0.33; H -0.001 ± 0.12
S19: V -0.451 ± 0.071; T -0.079 ± 0.078; D -0.13 ± 0.082; R -0.574 ± 0.063; W -0.672 ± 0.089; G -0.3 ± 0.065; K -0.379 ± 0.097; A -0.058 ± 0.065
K10: D 0.061 ± 0.18; P -0.482 ± 0.23; R -0.088 ± 0.064; A -0.126 ± 0.058; V -0.551 ± 0.088; W -0.748 ± 0.091; Y 0.002 ± 0.33
D7: E 0.007 ± 0.11; S -0.131 ± 0.23; P -0.529 ± 0.2; L -0.209 ± 0.12; T 0.154 ± 0.13; G -0.173 ± 0.069
Y8: S -0.448 ± 0.19; K -0.309 ± 0.083; M 0.054 ± 0.093; E 0.048 ± 0.096; T -0.07 ± 0.084
C6: G -1.07 ± 0.062; R -0.691 ± 0.071; N -0.919 ± 0.33; F -0.653 ± 0.17; A -0.471 ± 0.07
